Experimental data reported in patent publication US20240059799A1 (Pfizer, published 2024).

Key:
[1] = target: T1, human IL-12 (human, UniProt P29460 23-328; P29459 23-219); assay: cell-based or functional assay
T1 sequence 1: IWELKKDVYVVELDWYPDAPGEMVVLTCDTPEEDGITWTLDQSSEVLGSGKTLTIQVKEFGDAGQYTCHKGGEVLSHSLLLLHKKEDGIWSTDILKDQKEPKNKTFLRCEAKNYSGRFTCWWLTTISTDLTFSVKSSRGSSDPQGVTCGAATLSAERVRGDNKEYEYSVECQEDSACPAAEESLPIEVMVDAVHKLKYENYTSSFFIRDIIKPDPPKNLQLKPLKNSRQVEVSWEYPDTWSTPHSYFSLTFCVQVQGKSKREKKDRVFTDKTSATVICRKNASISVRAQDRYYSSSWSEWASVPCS
T1 sequence 2: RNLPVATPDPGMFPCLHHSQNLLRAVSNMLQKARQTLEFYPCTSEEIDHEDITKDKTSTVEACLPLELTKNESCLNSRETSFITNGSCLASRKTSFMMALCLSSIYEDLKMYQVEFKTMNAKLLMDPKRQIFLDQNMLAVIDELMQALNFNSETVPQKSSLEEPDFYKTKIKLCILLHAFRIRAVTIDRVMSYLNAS

[2] = target: T2, cynomolgus monkey IL-23 (cynomolgus monkey, limits assumed); assay: cell-based or functional assay
T2 chain 1: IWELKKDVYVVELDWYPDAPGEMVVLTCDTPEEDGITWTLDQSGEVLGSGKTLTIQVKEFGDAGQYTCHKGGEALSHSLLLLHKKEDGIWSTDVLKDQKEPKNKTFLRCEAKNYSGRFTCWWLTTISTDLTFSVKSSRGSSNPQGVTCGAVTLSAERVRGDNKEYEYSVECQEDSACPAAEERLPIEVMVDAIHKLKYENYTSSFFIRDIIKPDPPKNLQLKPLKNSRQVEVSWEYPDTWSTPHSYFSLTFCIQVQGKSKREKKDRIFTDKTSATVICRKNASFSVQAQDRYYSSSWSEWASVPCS
T2 chain 2: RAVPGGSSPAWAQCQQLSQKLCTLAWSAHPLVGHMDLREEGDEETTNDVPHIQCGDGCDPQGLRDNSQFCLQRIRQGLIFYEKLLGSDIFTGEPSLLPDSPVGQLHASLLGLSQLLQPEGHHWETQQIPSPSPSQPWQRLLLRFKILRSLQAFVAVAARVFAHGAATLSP

[3] = target: T3, human IL-23 (human, UniProt P29460 23-328; Q9NPF7 20-189); assay: cell-based or functional assay
T3 sequence 1: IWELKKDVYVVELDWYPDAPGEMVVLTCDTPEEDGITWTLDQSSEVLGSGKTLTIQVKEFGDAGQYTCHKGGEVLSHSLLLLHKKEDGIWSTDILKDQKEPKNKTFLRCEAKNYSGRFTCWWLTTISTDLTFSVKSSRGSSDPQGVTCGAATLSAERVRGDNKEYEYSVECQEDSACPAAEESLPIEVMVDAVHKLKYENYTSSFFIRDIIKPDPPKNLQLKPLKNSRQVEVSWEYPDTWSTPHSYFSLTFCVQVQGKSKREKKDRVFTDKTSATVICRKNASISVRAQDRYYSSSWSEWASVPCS
T3 sequence 2: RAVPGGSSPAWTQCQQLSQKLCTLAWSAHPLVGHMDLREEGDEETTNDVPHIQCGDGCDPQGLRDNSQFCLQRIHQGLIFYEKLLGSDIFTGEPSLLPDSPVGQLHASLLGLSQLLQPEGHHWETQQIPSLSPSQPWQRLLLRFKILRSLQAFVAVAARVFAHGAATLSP

[4] = target: T4, cynomolgus monkey IL-12 (cynomolgus monkey); assay: cell-based or functional assay
T4 chain 1: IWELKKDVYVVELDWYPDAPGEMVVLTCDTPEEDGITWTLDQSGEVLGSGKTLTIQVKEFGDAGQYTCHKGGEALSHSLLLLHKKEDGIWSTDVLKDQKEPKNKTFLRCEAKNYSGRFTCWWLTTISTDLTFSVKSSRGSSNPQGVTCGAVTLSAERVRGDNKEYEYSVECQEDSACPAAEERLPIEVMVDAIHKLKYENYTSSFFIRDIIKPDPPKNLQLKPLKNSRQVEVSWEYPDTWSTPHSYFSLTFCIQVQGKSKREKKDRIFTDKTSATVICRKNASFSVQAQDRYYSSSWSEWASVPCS
T4 chain 2: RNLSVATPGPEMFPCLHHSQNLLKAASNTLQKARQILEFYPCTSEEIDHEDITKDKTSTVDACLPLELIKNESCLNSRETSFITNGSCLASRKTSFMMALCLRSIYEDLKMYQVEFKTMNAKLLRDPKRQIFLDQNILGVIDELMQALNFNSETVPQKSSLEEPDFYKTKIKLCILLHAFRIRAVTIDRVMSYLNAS

[5] = target: T5, recombinant human TL1A (human, UniProt O95150 71-251); assay: cell-based or functional assay
T5 chain: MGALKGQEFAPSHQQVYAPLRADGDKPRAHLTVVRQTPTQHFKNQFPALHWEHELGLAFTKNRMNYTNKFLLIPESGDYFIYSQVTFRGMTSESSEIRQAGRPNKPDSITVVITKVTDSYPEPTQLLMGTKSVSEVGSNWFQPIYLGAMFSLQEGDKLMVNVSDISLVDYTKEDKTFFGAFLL

[6] = target: T6, human IL-23 (human, UniProt P29460 23-328; Q9NPF7 20-189); assay: SPR, Biacore 8K+, 37 C; antibody captured by anti-human Fc, cytokine injected
T6 construct: also called recombinant human IL-23 (p40/p19)
T6 sequence 1: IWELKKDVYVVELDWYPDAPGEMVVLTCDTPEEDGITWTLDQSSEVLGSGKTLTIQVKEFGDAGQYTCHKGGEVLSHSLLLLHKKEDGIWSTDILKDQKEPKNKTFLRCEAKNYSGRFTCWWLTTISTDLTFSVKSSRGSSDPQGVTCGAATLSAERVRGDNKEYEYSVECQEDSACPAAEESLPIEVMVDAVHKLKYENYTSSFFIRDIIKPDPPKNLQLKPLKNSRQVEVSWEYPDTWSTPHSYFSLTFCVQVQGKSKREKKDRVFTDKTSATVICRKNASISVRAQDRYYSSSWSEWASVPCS
T6 sequence 2: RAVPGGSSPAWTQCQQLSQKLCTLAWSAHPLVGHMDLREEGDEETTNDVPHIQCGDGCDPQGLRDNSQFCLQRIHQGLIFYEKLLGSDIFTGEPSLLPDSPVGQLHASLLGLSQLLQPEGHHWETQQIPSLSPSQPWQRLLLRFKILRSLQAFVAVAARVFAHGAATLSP
Experimental: (§1) In order to determine binding to TL1A, kinetic assays were conducted at 37° C. using a collection rate of 10 Hz on a Biacore™ T200 instrument (GE Healthcare). […] For the analysis of the p40 binding arm, kinetic assays were conducted at 37° C. using a collection rate of 10 Hz on a Biacore™ 8 K+ instrument (GE Healthcare).

[7] = target: T7, cynomolgus monkey IL-23 (cynomolgus monkey, limits assumed); assay: as above
T7 construct: also called cyno IL-23
T7 chain 1: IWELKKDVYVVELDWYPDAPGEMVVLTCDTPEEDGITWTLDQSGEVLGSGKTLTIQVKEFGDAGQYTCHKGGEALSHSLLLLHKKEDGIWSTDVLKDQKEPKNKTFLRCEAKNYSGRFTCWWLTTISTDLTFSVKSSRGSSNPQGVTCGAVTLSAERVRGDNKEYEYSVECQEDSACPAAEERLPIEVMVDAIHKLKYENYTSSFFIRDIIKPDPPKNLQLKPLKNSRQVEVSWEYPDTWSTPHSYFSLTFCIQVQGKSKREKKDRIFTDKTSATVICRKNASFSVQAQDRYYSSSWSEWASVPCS
T7 chain 2: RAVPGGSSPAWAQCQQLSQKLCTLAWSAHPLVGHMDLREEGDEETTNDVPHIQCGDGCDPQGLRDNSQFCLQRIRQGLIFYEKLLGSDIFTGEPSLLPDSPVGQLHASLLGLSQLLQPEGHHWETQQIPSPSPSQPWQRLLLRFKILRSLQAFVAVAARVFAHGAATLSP
Experimental: as §1

[8] = target: T8, rabbit IL-23 (rabbit); assay: as above
T8 chain 1: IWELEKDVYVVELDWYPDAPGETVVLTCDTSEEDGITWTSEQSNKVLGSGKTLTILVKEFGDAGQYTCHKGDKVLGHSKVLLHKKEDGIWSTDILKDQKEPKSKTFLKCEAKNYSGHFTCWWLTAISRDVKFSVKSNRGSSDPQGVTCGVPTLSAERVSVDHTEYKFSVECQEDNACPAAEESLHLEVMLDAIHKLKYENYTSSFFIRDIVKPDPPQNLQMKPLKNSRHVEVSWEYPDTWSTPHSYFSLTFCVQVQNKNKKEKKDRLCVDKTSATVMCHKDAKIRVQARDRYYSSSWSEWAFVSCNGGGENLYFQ
T8 chain 2: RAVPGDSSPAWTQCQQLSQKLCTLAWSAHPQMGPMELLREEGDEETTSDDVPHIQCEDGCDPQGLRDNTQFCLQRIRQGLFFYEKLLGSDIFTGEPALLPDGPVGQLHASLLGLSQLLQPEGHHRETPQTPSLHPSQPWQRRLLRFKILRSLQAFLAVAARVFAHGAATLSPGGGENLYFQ
Experimental: as §1

Row | Binder | STAT4 activation in human whole blood, fold decreased potency (IC50) compared to p40-0003 [1] [fold] | KIT-225 STAT3 phosphorylation, fold-change of potency across species (human against cynomolgus monkey IL-23) [2] [fold] | STAT3 activation in human whole blood, fold decreased potency (IC50) compared to p40-0003 [3] [fold] | KIT-225 STAT4 phosphorylation, fold-change of potency across species (human against cynomolgus monkey IL-12) [4] [fold] | NF-κB assay IC50 (TF-1 reporter cells, 384-well) [5] [nM] | Kd [6] [nM] | koff [6] [s⁻¹] | kon [6] [M⁻¹ s⁻¹] | Kd [7] [nM] | koff [7] [s⁻¹] | kon [7] [M⁻¹ s⁻¹] | binding result [8]
1 | p40TL1A-0033 (bispecific antibody, human IgG1, kappa, KiH modified-Fd bispecific: TL1A VL-CL-Fc (hole), TL1A mFd, p40 HC (knob), p40 LC; LS) chain 1: not shown chain 2: QVQLVQSGAEVKKPGASVKVSCKASGYDYTYYGISWVRQAPGQGLEWMGWISTYNTGTHYAPSLQGRVTMTTDTSTSTAYMELRSLRSDDTAVYYCARESYYGSGAFRGGMDVWGQGTTVTVSSASTKGPSVFPLAPSSKSTSGGTAALGCLVKDYFPEPVTVSWNSGALTSGVHTFPAVLQSSGLYSLSSVVTVPSSSLGTQTYICNVNHKPSNTKVDKKVEPKSC heavy: EVQLVQSGAEVKKPGESLKISCKGSGYSFTTYWLGWVRQMPGKGLDWIGIMSPVDSDIRYSPSFQGQVTMSVDKSITTAYLQWNSLKASDTAMYYCARRRPGQGYFDFWGQGTLVTVSSASTKGPSVFPLAPSSKSTSGGTAALGCLVKDYFPEPVTVSWNSGALTSGVHTFPAVLQSSGLYSLSSVVTVPSSSLGTQTYICNVNHKPSNTKVDKKVEPKSCDKTHTCPPCPAPEAAGAPSVFLFPPKPKDTLMISRTPEVTCVVVDVSHEDPEVKFNWYVDGVEVHNAKTKPREEQYNSTYRVVSVLTVLHQDWLNGKEYKCKVSNKALPAPIEKTISKAKGQPREPQVCTLPPSREEMTKNQVSLWCLVKGFYPSDIAVEWESNGQPENNYKTTPPVLDSDGSFFLYSKLTVDKSRWQQGNVFSCSVLHEALHSHYTQKSLSLSPGK light: not shown | ~2.9 | 1.2 | ~2.9 | 1.2 |  |  |  |  |  |  |  | 
2 | p40TL1A-0033 bispecific antibody (bispecific antibody, human IgG1, kappa, Single cell KiH, modified Fd format; IgG1 effector-function-minimized Fc with LS mutations) heavy: EVQLVQSGAEVKKPGESLKISCKGSGYSFTTYWLGWVRQMPGKGLDWIGIMSPVDSDIRYSPSFQGQVTMSVDKSITTAYLQWNSLKASDTAMYYCARRRPGQGYFDFWGQGTLVTVSSASTKGPSVFPLAPSSKSTSGGTAALGCLVKDYFPEPVTVSWNSGALTSGVHTFPAVLQSSGLYSLSSVVTVPSSSLGTQTYICNVNHKPSNTKVDKKVEPKSCDKTHTCPPCPAPEAAGAPSVFLFPPKPKDTLMISRTPEVTCVVVDVSHEDPEVKFNWYVDGVEVHNAKTKPREEQYNSTYRVVSVLTVLHQDWLNGKEYKCKVSNKALPAPIEKTISKAKGQPREPQVCTLPPSREEMTKNQVSLWCLVKGFYPSDIAVEWESNGQPENNYKTTPPVLDSDGSFFLYSKLTVDKSRWQQGNVFSCSVLHEALHSHYTQKSLSLSPGK light: not shown chain 1: not shown chain 2: QVQLVQSGAEVKKPGASVKVSCKASGYDYTYYGISWVRQAPGQGLEWMGWISTYNTGTHYAPSLQGRVTMTTDTSTSTAYMELRSLRSDDTAVYYCARESYYGSGAFRGGMDVWGQGTTVTVSSASTKGPSVFPLAPSSKSTSGGTAALGCLVKDYFPEPVTVSWNSGALTSGVHTFPAVLQSSGLYSLSSVVTVPSSSLGTQTYICNVNHKPSNTKVDKKVEPKSC |  |  |  |  | 0.31 | 0.104 | 0.000294 | 2.82e+06 | 0.281 | 0.000542 | 1.93e+06 | no binding (tested: 200 nM)
